Sequences and labels used below:
T1: Human TROP2 Protein, His Tag (Acro Biosystems) (human, UniProt P09758 27-274)
T1 construct: Bought antigen used at 50 nM in the Octet screen; also called TACSTD2; not shown: His tag
T1 sequence (looked up): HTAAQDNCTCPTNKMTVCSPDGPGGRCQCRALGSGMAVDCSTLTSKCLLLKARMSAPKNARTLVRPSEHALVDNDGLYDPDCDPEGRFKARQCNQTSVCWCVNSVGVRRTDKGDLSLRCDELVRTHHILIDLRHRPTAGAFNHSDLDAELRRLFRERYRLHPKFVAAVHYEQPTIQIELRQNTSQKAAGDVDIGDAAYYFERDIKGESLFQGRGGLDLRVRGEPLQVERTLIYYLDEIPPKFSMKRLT

B1: MYT11723 (antibody, V domains shown)
VH: QVQLQESGPGLVKPSETLSLTCTVSGGSISSYGVHWIRQPPGKGLEWIGVIWTSGVTHYNSALMGRVTISVDTSKNQFSLKLSSVTAADTAVYYCARDGDYDRYTMDYWGQGTLVTVSS
VL: DIVMTQSPDSLAVSLGERATINCRASKSVSTSGYSYMHWYQQKPGQPPKLLIYLASNLESGVPDRFSGSGSGTDFTLTISSLQAEDVAVYYCQHSRELPYTFGQGTKLEIK
notes: hu7E6SVG variant, His at HCV position 58 (H2 09); screened as IgG in Expi293 supernatant
B2: MYT11725 (antibody, V domains shown)
VH: QVQLQESGPGLVKPSETLSLTCTVSGGSISSYGVHWIRQPPGKGLEWIGVIWTSGVTDYHSALMGRVTISVDTSKNQFSLKLSSVTAADTAVYYCARDGDYDRYTMDYWGQGTLVTVSS
VL: DIVMTQSPDSLAVSLGERATINCRASKSVSTSGYSYMHWYQQKPGQPPKLLIYLASNLESGVPDRFSGSGSGTDFTLTISSLQAEDVAVYYCQHSRELPYTFGQGTKLEIK
notes: hu7E6SVG variant, His at HCV position 60 (H2 11); screened as IgG in Expi293 supernatant
B3: MYT11738 (antibody, V domains shown)
VH: QVQLQESGPGLVKPSETLSLTCTVSGGSISSYGVHWIRQPPGKGLEWIGVIWTSGVTDYNSALMGRVTISVDTSKNQFSLKLSSVTAADTAVYYCARDGDYDHYTMDYWGQGTLVTVSS
VL: DIVMTQSPDSLAVSLGERATINCRASKSVSTSGYSYMHWYQQKPGQPPKLLIYLASNLESGVPDRFSGSGSGTDFTLTISSLQAEDVAVYYCQHSRELPYTFGQGTKLEIK
B4: MYT11732 (antibody, V domains shown)
VH: QVQLQESGPGLVKPSETLSLTCTVSGGSISSYGVHWIRQPPGKGLEWIGVIWTSGVTDYNSALMGRVTISVDTSKNQFSLKLSSVTAADTAVYYCAHDGDYDRYTMDYWGQGTLVTVSS
VL: DIVMTQSPDSLAVSLGERATINCRASKSVSTSGYSYMHWYQQKPGQPPKLLIYLASNLESGVPDRFSGSGSGTDFTLTISSLQAEDVAVYYCQHSRELPYTFGQGTKLEIK
notes: hu7E6SVG variant, His at HCV position 97 (H3 02); screened as IgG in Expi293 supernatant
B5: MYT11739 (antibody, V domains shown)
VH: QVQLQESGPGLVKPSETLSLTCTVSGGSISSYGVHWIRQPPGKGLEWIGVIWTSGVTDYNSALMGRVTISVDTSKNQFSLKLSSVTAADTAVYYCARDGDYDRHTMDYWGQGTLVTVSS
VL: DIVMTQSPDSLAVSLGERATINCRASKSVSTSGYSYMHWYQQKPGQPPKLLIYLASNLESGVPDRFSGSGSGTDFTLTISSLQAEDVAVYYCQHSRELPYTFGQGTKLEIK
notes: hu7E6SVG variant, His at HCV position 104 (H3 09); screened as IgG in Expi293 supernatant
B6: MYT11735 (antibody, V domains shown)
VH: QVQLQESGPGLVKPSETLSLTCTVSGGSISSYGVHWIRQPPGKGLEWIGVIWTSGVTDYNSALMGRVTISVDTSKNQFSLKLSSVTAADTAVYYCARDGHYDRYTMDYWGQGTLVTVSS
VL: DIVMTQSPDSLAVSLGERATINCRASKSVSTSGYSYMHWYQQKPGQPPKLLIYLASNLESGVPDRFSGSGSGTDFTLTISSLQAEDVAVYYCQHSRELPYTFGQGTKLEIK
notes: hu7E6SVG variant, His at HCV position 100 (H3 05); screened as IgG in Expi293 supernatant
B7: MYT11734 (antibody, V domains shown)
VH: QVQLQESGPGLVKPSETLSLTCTVSGGSISSYGVHWIRQPPGKGLEWIGVIWTSGVTDYNSALMGRVTISVDTSKNQFSLKLSSVTAADTAVYYCARDHDYDRYTMDYWGQGTLVTVSS
VL: DIVMTQSPDSLAVSLGERATINCRASKSVSTSGYSYMHWYQQKPGQPPKLLIYLASNLESGVPDRFSGSGSGTDFTLTISSLQAEDVAVYYCQHSRELPYTFGQGTKLEIK
notes: hu7E6SVG variant, His at HCV position 99 (H3 04); screened as IgG in Expi293 supernatant
B8: MYT11727 (antibody, V domains shown)
VH: QVQLQESGPGLVKPSETLSLTCTVSGGSISSYGVHWIRQPPGKGLEWIGVIWTSGVTDYNSHLMGRVTISVDTSKNQFSLKLSSVTAADTAVYYCARDGDYDRYTMDYWGQGTLVTVSS
VL: DIVMTQSPDSLAVSLGERATINCRASKSVSTSGYSYMHWYQQKPGQPPKLLIYLASNLESGVPDRFSGSGSGTDFTLTISSLQAEDVAVYYCQHSRELPYTFGQGTKLEIK
notes: hu7E6SVG variant, His at HCV position 62 (H2 13); screened as IgG in Expi293 supernatant
B9: MYT11733 (antibody, V domains shown)
VH: QVQLQESGPGLVKPSETLSLTCTVSGGSISSYGVHWIRQPPGKGLEWIGVIWTSGVTDYNSALMGRVTISVDTSKNQFSLKLSSVTAADTAVYYCARHGDYDRYTMDYWGQGTLVTVSS
VL: DIVMTQSPDSLAVSLGERATINCRASKSVSTSGYSYMHWYQQKPGQPPKLLIYLASNLESGVPDRFSGSGSGTDFTLTISSLQAEDVAVYYCQHSRELPYTFGQGTKLEIK
notes: hu7E6SVG variant, His at HCV position 98 (H3 03); screened as IgG in Expi293 supernatant
B10: MYT11726 (antibody, V domains shown)
VH: QVQLQESGPGLVKPSETLSLTCTVSGGSISSYGVHWIRQPPGKGLEWIGVIWTSGVTDYNHALMGRVTISVDTSKNQFSLKLSSVTAADTAVYYCARDGDYDRYTMDYWGQGTLVTVSS
VL: DIVMTQSPDSLAVSLGERATINCRASKSVSTSGYSYMHWYQQKPGQPPKLLIYLASNLESGVPDRFSGSGSGTDFTLTISSLQAEDVAVYYCQHSRELPYTFGQGTKLEIK
notes: hu7E6SVG variant, His at HCV position 61 (H2 12); screened as IgG in Expi293 supernatant
B11: MYT11728 (antibody, V domains shown)
VH: QVQLQESGPGLVKPSETLSLTCTVSGGSISSYGVHWIRQPPGKGLEWIGVIWTSGVTDYNSAHMGRVTISVDTSKNQFSLKLSSVTAADTAVYYCARDGDYDRYTMDYWGQGTLVTVSS
VL: DIVMTQSPDSLAVSLGERATINCRASKSVSTSGYSYMHWYQQKPGQPPKLLIYLASNLESGVPDRFSGSGSGTDFTLTISSLQAEDVAVYYCQHSRELPYTFGQGTKLEIK
notes: hu7E6SVG variant, His at HCV position 63 (H2 14); screened as IgG in Expi293 supernatant
B12: MYT11724 (antibody, V domains shown)
VH: QVQLQESGPGLVKPSETLSLTCTVSGGSISSYGVHWIRQPPGKGLEWIGVIWTSGVTDHNSALMGRVTISVDTSKNQFSLKLSSVTAADTAVYYCARDGDYDRYTMDYWGQGTLVTVSS
VL: DIVMTQSPDSLAVSLGERATINCRASKSVSTSGYSYMHWYQQKPGQPPKLLIYLASNLESGVPDRFSGSGSGTDFTLTISSLQAEDVAVYYCQHSRELPYTFGQGTKLEIK
B13: MYT11729 (antibody, V domains shown)
VH: QVQLQESGPGLVKPSETLSLTCTVSGGSISSYGVHWIRQPPGKGLEWIGVIWTSGVTDYNSALHGRVTISVDTSKNQFSLKLSSVTAADTAVYYCARDGDYDRYTMDYWGQGTLVTVSS
VL: DIVMTQSPDSLAVSLGERATINCRASKSVSTSGYSYMHWYQQKPGQPPKLLIYLASNLESGVPDRFSGSGSGTDFTLTISSLQAEDVAVYYCQHSRELPYTFGQGTKLEIK
notes: hu7E6SVG variant, His at HCV position 64 (H2 15); screened as IgG in Expi293 supernatant
B14: MYT11736 (antibody, V domains shown)
VH: QVQLQESGPGLVKPSETLSLTCTVSGGSISSYGVHWIRQPPGKGLEWIGVIWTSGVTDYNSALMGRVTISVDTSKNQFSLKLSSVTAADTAVYYCARDGDHDRYTMDYWGQGTLVTVSS
VL: DIVMTQSPDSLAVSLGERATINCRASKSVSTSGYSYMHWYQQKPGQPPKLLIYLASNLESGVPDRFSGSGSGTDFTLTISSLQAEDVAVYYCQHSRELPYTFGQGTKLEIK
notes: hu7E6SVG variant, His at HCV position 101 (H3 06); screened as IgG in Expi293 supernatant
B15: MYT11731 (antibody, V domains shown)
VH: QVQLQESGPGLVKPSETLSLTCTVSGGSISSYGVHWIRQPPGKGLEWIGVIWTSGVTDYNSALMGRVTISVDTSKNQFSLKLSSVTAADTAVYYCHRDGDYDRYTMDYWGQGTLVTVSS
VL: DIVMTQSPDSLAVSLGERATINCRASKSVSTSGYSYMHWYQQKPGQPPKLLIYLASNLESGVPDRFSGSGSGTDFTLTISSLQAEDVAVYYCQHSRELPYTFGQGTKLEIK
notes: hu7E6SVG variant, His at HCV position 96 (H3 01); screened as IgG in Expi293 supernatant
B16: MYT11730 (antibody, V domains shown)
VH: QVQLQESGPGLVKPSETLSLTCTVSGGSISSYGVHWIRQPPGKGLEWIGVIWTSGVTDYNSALMHRVTISVDTSKNQFSLKLSSVTAADTAVYYCARDGDYDRYTMDYWGQGTLVTVSS
VL: DIVMTQSPDSLAVSLGERATINCRASKSVSTSGYSYMHWYQQKPGQPPKLLIYLASNLESGVPDRFSGSGSGTDFTLTISSLQAEDVAVYYCQHSRELPYTFGQGTKLEIK
notes: hu7E6SVG variant, His at HCV position 65 (H2 16); screened as IgG in Expi293 supernatant
B17: MYT11737 (antibody, V domains shown)
VH: QVQLQESGPGLVKPSETLSLTCTVSGGSISSYGVHWIRQPPGKGLEWIGVIWTSGVTDYNSALMGRVTISVDTSKNQFSLKLSSVTAADTAVYYCARDGDYHRYTMDYWGQGTLVTVSS
VL: DIVMTQSPDSLAVSLGERATINCRASKSVSTSGYSYMHWYQQKPGQPPKLLIYLASNLESGVPDRFSGSGSGTDFTLTISSLQAEDVAVYYCQHSRELPYTFGQGTKLEIK
notes: screened as IgG in Expi293 supernatant

In the test the target is T1, Human TROP2 Protein, His Tag (Acro …). The experiment in a line: BLI (Octet) [1/2]. The procedure: After allowing for four days of protein expression, cell culture supernatants were collected, quantified by SDS-PAGE analysis (DNS), and the pH dependence of the variant was evaluated using biolayer interferometry (BLI) on an Octet RED 96e instrument. Briefly, cell culture supernatants were diluted based on qualitative expression level of the variant determined by visual examination of SDS-PAGE gels, 5 μL of cell culture supernatant was diluted into 195 μL of 1×PBST, pH 7.4 for high expressors, 25 μL of cell culture supernatant was diluted into 175 μL of 1×PBST, pH 7.4 for medium expressors and 100 μL of cell culture supernatant was diluted into 100 μL of 1×PBST, pH 7.4 for low expressors for loading onto the sensor tips. The resulting diluted supernatants were then captured on an anti-human Fc sensor (Forte Bio). A baseline was established using 1×PBST (50 mM Potassium Phosphate Buffer+150 mM NaCl+0.05% Tween 20) pH 7.4, and the sensor was associated with 50 nM of TROP2 (Human TROP2 Protein, His Tag, Acro Biosystems) in 1×PBST pH 7.4 for 120 sec to generate an association curve. In the dissociation phase, the antibody-antigen complex on the sensor was exposed to 1×PBST pH 7.4 or pH 5.4, for 300 sec. Association and dissociation phase curves were examined for the starting ABPC antibody (with no substitutions) and each corresponding antibody variant at pH 5.4 and pH 7.4 to inform on two criteria: a) enhanced dissociation (i.e., higher koff values) at pH 5.4 due to histidine or alanine substitution compared to the starting ABPC, (with no substitutions), and b) reduced dissociation at pH 7.4 (i.e., lower koff values) compared to pH 5.4 in the antibody variant itself and with the starting ABPC (with no substitutions). […] It was also noted that while some mutations obliterated TROP2 binding, others were tolerated with little or n change in TROP2 binding kinetics.
On the technique in general: In BLI a coated tip is dipped into the sample, and binding shifts an interference pattern.
As to B1, the binding result is on record as “no binding (tested: 50 nM)”.
B2: the binding result is reported as “binds”.
To B3 belongs “binds”; to B4, “binds”.
Consider B5, for which the binding result is “no binding (tested: 50 nM)”.
With B6, the binding result is given as “binds”.
B7: the binding result is reported as “no binding (tested: 50 nM)”.
As for B8, the entry is “binds”; as for B9, “no binding (tested: 50 nM)”; as for B10, “binds”.
For B11, the binding result is given as “binds”.
To B12 belongs “binds”.
For the molecule B13, the binding result is “binds”.
As to B14, the binding result is on record as “no binding (tested: 50 nM)”.
As for B15, the binding result was “no binding (tested: 50 nM)”.
B16: the binding result is reported as “binds”.
In the case of B17, the binding result was “binds”.
